According to IntAct's records for PubMed 24286120:

B1: Malignant fibrous histiocytoma-amplified sequence 1 (Homo sapiens), Q9Y4C4 (parent)
chain: MAGMDSGNLKTARLWRDAALRARKLRSNLRQLTLTAAGACPGAGADALESPASPQLVLPANLGDIEALNLGNNGLEEVPEGLGSALGSLRVLVLRRNRFARLPPAVAELGHHLTELDVSHNRLTALGAEVVSALRELRKLNLSHNQLPALPAQLGALAHLEELDVSFNRLAHLPDSLSCLSRLRTLDVDHNQLTAFPRQLLQLVALEELDVSSNRLRGLPEDISALRALKILWLSGAELGTLPAGFCELASLESLMLDNNGLQALPAQFSCLQRLKMLNLSSNLFEEFPAALLPLAGLEELYLSRNQLTSVPSLISGLGRLLTLWLDNNRIRYLPDSIVELTGLEELVLQGNQIAVLPDHFGQLSRVGLWKIKDNPLIQPPYEVCMKGIPYIAAYQKELAHSQPAVQPRLKLLLMGHKAAGKTLLRHCLTEERVEGCPGGGDKEKCYPPSPPPVSKGIEVTSWTADASRGLRFIVYDLAGDESYEVIQPFFLSPGALYVLVVNLATYEPRHFPTTVGSFLHRVGARVPHAVVCIVGTHADLCGERELEEKCLDIHRQIALQEKHDAEGLSRLAKVVDEALARDFELRSASPHAAYYGVSDKNLRRRKAHFQYLLNHRLQILSPVLPVSCRDPRHLRRLRDKLLSVAEHREIFPNLHRVLPRSWQVLEELHFQPPQAQRLWLSWWDSARLGLQAGLTEDRLQSALSYLHESGKLLYFEDSPALKEHVFHNLTRLIDILNVFFQRDPSLLLHKLLLGTSGEGKAEGESSPPMARSTPSQELLRATQLHQYVEGFLLHGLLPAHVIRLLLKPHVQAQQDLQLLLELLEKMGLCYCLNKPKGKPLNGSTAWYKFPCYVQNEVPHAEAWINGTNLAGQSFVAEQLQIEYSFPFTFPLGLFARYSVQINSHVVHRSDGKFQIFAYRGKVPVVVSYRPARGVLQPDTLSIASHASLPNIWTAWQAITPLVEELNVLLQEWPGLHYTVHILCSKCLKRGSPNPHAFPGELLSQPRPEGVAEIICPKNGSERVNVALVYPPTPTVISPCSKKNVGEKHRNQ

Variants of: B1
Settings: with ch60_human HSPD1, P10809
ch60_human HSPD1, P10809, sequence (P10809 whole entry): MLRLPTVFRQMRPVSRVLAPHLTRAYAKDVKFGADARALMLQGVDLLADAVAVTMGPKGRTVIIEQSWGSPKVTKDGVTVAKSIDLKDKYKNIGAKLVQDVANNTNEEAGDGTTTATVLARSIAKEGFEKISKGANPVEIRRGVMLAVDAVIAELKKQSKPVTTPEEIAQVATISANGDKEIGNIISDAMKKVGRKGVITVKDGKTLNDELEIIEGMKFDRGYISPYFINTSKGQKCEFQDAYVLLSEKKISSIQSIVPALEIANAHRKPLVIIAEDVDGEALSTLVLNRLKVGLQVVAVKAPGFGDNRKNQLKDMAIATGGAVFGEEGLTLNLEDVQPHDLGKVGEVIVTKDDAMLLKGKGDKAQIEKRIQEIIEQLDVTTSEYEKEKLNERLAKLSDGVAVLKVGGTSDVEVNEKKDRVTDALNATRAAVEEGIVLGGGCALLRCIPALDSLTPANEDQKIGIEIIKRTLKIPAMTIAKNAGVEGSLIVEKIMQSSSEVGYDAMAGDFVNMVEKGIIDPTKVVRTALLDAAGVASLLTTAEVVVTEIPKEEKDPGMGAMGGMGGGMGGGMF

**Q.** For K422A, which “effect of a mutation on the interaction” value is on record?
**A.** increasing interaction
